Reference: paper PMC11407386, “Streptococcus suis 5’-nucleotidases contribute to adenosine-mediated immune evasion and virulence in a mouse model” (Virulence, 2024)

System: Nc1ncnc2c1ncn2[C@@H]1O[C@H](COP(=O)(O)O)[C@@H](O)[C@H]1O
Assay: purified protein
Conditions: 50 mM Tris-HCl, 5 mM MnCl2, pH 7.5, 37°C, 0.05 µM enzyme

## SntC (Streptococcus suis BM407)
0-500 µM AMP
  Km: 83.7 µM

## SntD (Streptococcus suis BM407)
0-2000 µM AMP
  Km: 412.1 µM

## SntA (Streptococcus suis BM407)
0-500 µM AMP
  Km: 13.67 µM
